Experiments:
HeLa Kyoto [1] = test: solubility change mitosis vs G1/S (difference of NP-40 vs SDS log2 ratios) (log2 ratio difference); higher = more soluble in mitosis
HeLa Kyoto [2] = test: solubility in G1/S (NP-40 vs SDS abundance) (log2 ratio); higher = more soluble; settings: cell cycle stage: G1/S
HeLa Kyoto [3] = test: melting temperature (median over replicates), in situ; higher = more thermally stable
HeLa Kyoto [4] = test: thermal stability score vs G1/S (z-score of summed log2 fold changes over temperatures); higher = more thermally stable than in G1/S
[5] = cell cycle stage: early G1 (4.5 h after nocodazole release)
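For melting temperature (median over replicates), in situ in this document: HeLa Kyoto cells synchronized by double thymidine or nocodazole block, proteins quantified by TMT10plex mass spectrometry, three independent biological replicates.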
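For solubility change mitosis vs G1/S (difference of NP-40 vs SDS log2 ratios) in this document: synchronized HeLa Kyoto cells (double thymidine block for G1/S, nocodazole release for mitosis), protein amounts in NP-40 versus SDS lysates quantified by mass spectrometry, three biological replicates.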
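For solubility in G1/S (NP-40 vs SDS abundance) in this document: HeLa Kyoto cells arrested at G1/S by double thymidine block, proteins quantified by TMT10plex mass spectrometry in mild NP-40 versus SDS extracts, three biological replicates.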
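For thermal stability score vs G1/S (z-score of summed log2 fold changes over temperatures) in this document: synchronized HeLa Kyoto cells, proteins quantified by TMT10plex mass spectrometry, three biological replicates, mitosis taken 0.5 h after nocodazole release, G1/S directly after double thymidine block.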

TANC2, sequence (chain, as listed by the source): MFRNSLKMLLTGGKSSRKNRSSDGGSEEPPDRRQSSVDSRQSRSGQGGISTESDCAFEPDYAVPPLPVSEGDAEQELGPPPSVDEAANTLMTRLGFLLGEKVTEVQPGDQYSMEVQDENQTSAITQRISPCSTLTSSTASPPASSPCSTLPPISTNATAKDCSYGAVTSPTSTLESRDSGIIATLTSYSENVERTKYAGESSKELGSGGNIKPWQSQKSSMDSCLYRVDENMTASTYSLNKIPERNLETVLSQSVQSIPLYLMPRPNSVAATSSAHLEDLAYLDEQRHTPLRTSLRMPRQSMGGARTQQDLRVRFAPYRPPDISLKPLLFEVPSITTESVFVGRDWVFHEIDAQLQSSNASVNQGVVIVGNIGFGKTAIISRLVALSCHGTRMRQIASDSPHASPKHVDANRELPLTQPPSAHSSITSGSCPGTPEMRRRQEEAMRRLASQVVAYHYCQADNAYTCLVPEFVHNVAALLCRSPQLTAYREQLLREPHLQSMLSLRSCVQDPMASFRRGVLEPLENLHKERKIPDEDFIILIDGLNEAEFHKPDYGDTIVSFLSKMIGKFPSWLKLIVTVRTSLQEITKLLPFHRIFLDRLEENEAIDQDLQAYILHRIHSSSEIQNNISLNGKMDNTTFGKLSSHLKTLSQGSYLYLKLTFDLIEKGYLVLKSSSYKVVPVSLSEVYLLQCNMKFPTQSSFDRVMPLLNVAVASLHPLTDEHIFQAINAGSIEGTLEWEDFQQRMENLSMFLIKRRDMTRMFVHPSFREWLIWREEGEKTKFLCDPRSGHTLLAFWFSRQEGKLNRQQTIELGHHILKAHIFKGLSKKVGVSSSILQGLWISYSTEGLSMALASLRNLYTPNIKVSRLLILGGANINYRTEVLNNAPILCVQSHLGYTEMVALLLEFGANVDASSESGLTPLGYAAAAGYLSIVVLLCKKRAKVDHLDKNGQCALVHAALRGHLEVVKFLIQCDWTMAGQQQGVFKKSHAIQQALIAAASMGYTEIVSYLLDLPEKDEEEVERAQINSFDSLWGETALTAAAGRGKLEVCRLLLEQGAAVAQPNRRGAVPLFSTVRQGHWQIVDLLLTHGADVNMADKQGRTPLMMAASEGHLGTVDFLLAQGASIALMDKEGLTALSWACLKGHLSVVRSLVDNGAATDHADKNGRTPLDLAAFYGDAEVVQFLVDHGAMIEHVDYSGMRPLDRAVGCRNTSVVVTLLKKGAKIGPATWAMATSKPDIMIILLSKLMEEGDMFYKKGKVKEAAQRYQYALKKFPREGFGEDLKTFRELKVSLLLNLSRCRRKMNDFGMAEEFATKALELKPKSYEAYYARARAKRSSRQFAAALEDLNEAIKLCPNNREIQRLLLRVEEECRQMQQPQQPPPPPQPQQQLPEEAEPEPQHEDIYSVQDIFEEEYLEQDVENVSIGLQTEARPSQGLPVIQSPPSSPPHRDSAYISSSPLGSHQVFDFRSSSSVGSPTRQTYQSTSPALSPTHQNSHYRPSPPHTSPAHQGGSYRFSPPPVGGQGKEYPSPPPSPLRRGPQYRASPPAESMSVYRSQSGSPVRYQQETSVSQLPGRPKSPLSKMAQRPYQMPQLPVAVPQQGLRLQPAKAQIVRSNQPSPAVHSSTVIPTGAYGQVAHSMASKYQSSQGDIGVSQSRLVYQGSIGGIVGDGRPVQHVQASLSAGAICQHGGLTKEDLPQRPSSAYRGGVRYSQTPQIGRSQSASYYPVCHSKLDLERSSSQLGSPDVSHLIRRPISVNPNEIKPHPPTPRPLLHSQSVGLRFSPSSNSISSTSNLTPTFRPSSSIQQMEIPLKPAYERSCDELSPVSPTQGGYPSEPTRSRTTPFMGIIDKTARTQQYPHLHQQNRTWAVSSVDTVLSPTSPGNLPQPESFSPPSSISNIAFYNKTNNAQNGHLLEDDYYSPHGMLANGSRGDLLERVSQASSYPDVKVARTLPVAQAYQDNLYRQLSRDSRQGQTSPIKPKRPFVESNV

Row | Substance | solubility change mitosis (log2) (HeLa Kyoto [1]) | solubility in G1/S (log2) (HeLa Kyoto [2]) | melting temperature (HeLa Kyoto [3]; cell cycle stage: G1/S) | melting temperature (HeLa Kyoto [3]; cell cycle stage: mitosis) | thermal stability score (HeLa Kyoto [4]; [5]) | thermal stability score (HeLa Kyoto [4]; cell cycle stage: mitosis)
1 | MKEEVKGIPVRVALRCRPLVPKEISEGCQMCLSFVPGEPQVVVGTDKSFTYDFVFDPSTEQEEVFNTAVAPLIKGVFKGYNATVLAYGQTGSGKTYSMGGAYTAEQENEPTVGVIPRVIQLLFKEIDKKSDFEFTLKVSYLEIYNEEILDLLCPSREKAQINIREDPKEGIKIVGLTEKTVLVALDTVSCLEQGNNSRTVASTAMNSQSSRSHAIFTISLEQRKKSDKNSSFRSKLHLVDLAGSERQKKTKAEGDRLKEGININRGLLCLGNVISALGDDKKGGFVPYRDSKLTRLLQDSLGGNSHTLMIACVSPADSNLEETLNTLRYADRARKIKNKPIVNIDPQTAELNHLKQQVQQLQVLLLQAHGGTLPGSITVEPSENLQSLMEKNQSLVEENEKLSRGLSEAAGQTAQMLERIILTEQANEKMNAKLEELRQHAACKLDLQKLVETLEDQELKENVEIICNLQQLITQLSDETVACMAAAIDTAVEQEAQVETSPETSRSSDAFTTQHALRQAQMSKELVELNKALALKEALARKMTQNDSQLQPIQYQYQDNIKELELEVINLQKEKEELVLELQTAKKDANQAKLSERRRKRLQELEGQIADLKKKLNEQSKLLKLKESTERTVSKLNQEIRMMKNQRVQLMRQMKEDAEKFRQWKQKKDKEVIQLKERDRKRQYELLKLERNFQKQSNVLRRKTEEAAAANKRLKDALQKQREVADKRKETQSRGMEGTAARVKNWLGNEIEVMVSTEEAKRHLNDLLEDRKILAQDVAQLKEKKESGENPPPKLRRRTFSLTEVRGQVSESEDSITKQIESLETEMEFRSAQIADLQQKLLDAESEDRPKQRWENIATILEAKCALKYLIGELVSSKIQVSKLESSLKQSKTSCADMQKMLFEERNHFAEIETELQAELVRMEQQHQEKVLYLLSQLQQSQMAEKQLEESVSEKEQQLLSTLKCQDEELEKMREVCEQNQQLLRENEIIKQKLTLLQVASRQKHLPKDTLLSPDSSFEYVPPKPKPSRVKEKFLEQSMDIEDLKYCSEHSVNEHEDGDGDDDEGDDEEWKPTKLVKVSRKNIQGCSCKGWCGNKQCGCRKQKSDCGVDCCCDPTKCRNRQQGKDSLGTVERTQDSEGSFKLEDPTEVTPGLSFFNPVCATPNSKILKEMCDVEQVLSKKTPPAPSPFDLPELKHVATEYQENKAPGKKKKRALASNTSFFSGCSPIEEEAH [KIF4A] | 0.00592 | 0.00342 | 45.7 °C | 48.8 °C | 4.91 | 8.64
2 | MAAFSEMGVMPEIAQAVEEMDWLLPTDIQAESIPLILGGGDVLMAAETGSGKTGAFSIPVIQIVYETLKDQQEGKKGKTTIKTGASVLNKWQMNPYDRGSAFAIGSDGLCCQSREVKEWHGCRATKGLMKGKHYYEVSCHDQGLCRVGWSTMQASLDLGTDKFGFGFGGTGKKSHNKQFDNYGEEFTMHDTIGCYLDIDKGHVKFSKNGKDLGLAFEIPPHMKNQALFPACVLKNAELKFNFGEEEFKFPPKDGFVALSKAPDGYIVKSQHSGNAQVTQTKFLPNAPKALIVEPSRELAEQTLNNIKQFKKYIDNPKLRELLIIGGVAARDQLSVLENGVDIVVGTPGRLDDLVSTGKLNLSQVRFLVLDEADGLLSQGYSDFINRMHNQIPQVTSDGKRLQVIVCSATLHSFDVKKLSEKIMHFPTWVDLKGEDSVPDTVHHVVVPVNPKTDRLWERLGKSHIRTDDVHAKDNTRPGANSPEMWSEAIKILKGEYAVRAIKEHKMDQAIIFCRTKIDCDNLEQYFIQQGGGPDKKGHQFSCVCLHGDRKPHERKQNLERFKKGDVRFLICTDVAARGIDIHGVPYVINVTLPDEKQNYVHRIGRVGRAERMGLAISLVATEKEKVWYHVCSSRGKGCYNTRLKEDGGCTIWYNEMQLLSEIEEHLNCTISQVEPDIKVPVDEFDGKVTYGQKRAAGGGSYKGHVDILAPTVQELAALEKEAQTSFLHLGYLPNQLFRTF [DDX1] | 0.00283 | -0.286 | 50.7 °C | 50.9 °C | 0.00991 | 0.413
3 | MSYDRAITVFSPDGHLFQVEYAQEAVKKGSTAVGVRGRDIVVLGVEKKSVAKLQDERTVRKICALDDNVCMAFAGLTADARIVINRARVECQSHRLTVEDPVTVEYITRYIASLKQRYTQSNGRRPFGISALIVGFDFDGTPRLYQTDPSGTYHAWKANAIGRGAKSVREFLEKNYTDEAIETDDLTIKLVIKALLEVVQSGGKNIELAVMRRDQSLKILNPEEIEKYVAEIEKEKEENEKKKQKKAS [PSMA7] | -0.0151 | 0.332 | 59 °C | 62.2 °C | -1.05 | -2.15
4 | VLDLR | -0.0963 | -0.0421 | 56.4 °C | 55.4 °C | -2.48 | -3.74
5 | MYH9 | -0.117 | 0.1 | 53.4 °C | 52.1 °C | -1.58 | 0.618
6 | MANNDAVLKRLEQKGAEADQIIEYLKQQVSLLKEKAILQATLREEKKLRVENAKLKKEIEELKQELIQAEIQNGVKQIPFPSGTPLHANSMVSENVIQSTAVTTVSSGTKEQIKGGTGDEKKAKEKIEKKGEKKEKKQQSIAGSADSKPIDVSRLDLRIGCIITARKHPDADSLYVEEVDVGEIAPRTVVSGLVNHVPLEQMQNRMVILLCNLKPAKMRGVLSQAMVMCASSPEKIEILAPPNGSVPGDRITFDAFPGEPDKELNPKKKIWEQIQPDLHTNDECVATYKGVPFEVKGKGVCRAQTMSNSGIK [AIMP1] | 0.02 | 0.468 | 48.3 °C | 49.1 °C | -0.0166 | 1.24
7 | URB1 | 0.746 | -1.55 | – | 50.5 °C | 0.229 | 0.403
8 | MQAARMAASLGRQLLRLGGGSSRLTALLGQPRPGPARRPYAGGAAQLALDKSDSHPSDALTRKKPAKAESKSFAVGMFKGQLTTDQVFPYPSVLNEEQTQFLKELVEPVSRFFEEVNDPAKNDALEMVEETTWQGLKELGAFGLQVPSELGGVGLCNTQYARLVEIVGMHDLGVGITLGAHQSIGFKGILLFGTKAQKEKYLPKLASGETVAAFCLTEPSSGSDAASIRTSAVPSPCGKYYTLNGSKLWISNGGLADIFTVFAKTPVTDPATGAVKEKITAFVVERGFGGITHGPPEKKMGIKASNTAEVFFDGVRVPSENVLGEVGSGFKVAMHILNNGRFGMAAALAGTMRGIIAKAVDHATNRTQFGEKIHNFGLIQEKLARMVMLQYVTESMAYMVSANMDQGATDFQIEAAISKIFGSEAAWKVTDECIQIMGGMGFMKEPGVERVLRDLRIFRIFEGTNDILRLFVALQGCMDKGKELSGLGSALKNPFGNAGLLLGEAGKQLRRRAGLGSGLSLSGLVHPELSRSGELAVRALEQFATVVEAKLIKHKKGIVNEQFLLQRLADGAIDLYAMVVVLSRASRSLSEGHPTAQHEKMLCDTWCIEAAARIREGMAALQSDPWQQELYRNFKSISKALVERGGVVTSNPLGF [ACADVL] | -0.118 | 0.117 | 54.9 °C | 55 °C | 0.172 | -2.03
9 | MSASAQQLAEELQIFGLDCEEALIEKLVELCVQYGQNEEGMVGELIAFCTSTHKVGLTSEILNSFEHEFLSKRLSKARHSTCKDSGHAGARDIVSIQELIEVEEEEEILLNSYTTPSKGSQKRAISTPETPLTKRSVSTRSPHQLLSPSSFSPSATPSQKYNSRSNRGEVVTSFGLAQGVSWSGRGGAGNISLKVLGCPEALTGSYKSMFQKLPDIREVLTCKIEELGSELKEHYKIEAFTPLLAPAQEPVTLLGQIGCDSNGKLNNKSVILEGDREHSSGAQIPVDLSELKEYSLFPGQVVIMEGINTTGRKLVATKLYEGVPLPFYQPTEEDADFEQSMVLVACGPYTTSDSITYDPLLDLIAVINHDRPDVCILFGPFLDAKHEQVENCLLTSPFEDIFKQCLRTIIEGTRSSGSHLVFVPSLRDVHHEPVYPQPPFSYSDLSREDKKQVQFVSEPCSLSINGVIFGLTSTDLLFHLGAEEISSSSGTSDRFSRILKHILTQRSYYPLYPPQEDMAIDYESFYVYAQLPVTPDVLIIPSELRYFVKDVLGCVCVNPGRLTKGQVGGTFARLYLRRPAADGAERQSPCIAVQVVRI [POLA2] | -0.155 | 0.0737 | 48.8 °C | 50.2 °C | 1.44 | 4.66
10 | MKIFCSRANPTTGSVEWLEEDEHYDYHQEIARSSYADMLHDKDRNVKYYQGIRAAVSRVKDRGQKALVLDIGTGTGLLSMMAVTAGADFCYAIEVFKPMADAAVKIVEKNGFSDKIKVINKHSTEVTVGPEGDMPCRANILVTELFDTELIGEGALPSYEHAHRHLVEENCEAVPHRATVYAQLVESGRMWSWNKLFPIHVQTSLGEQVIVPPVDVESCPGAPSVCDIQLNQVSPADFTVLSDVLPMFSIDFSKQVSSSAACHSRRFEPLTSGRAQVVLSWWDIEMDPEGKIKCTMAPFWAHSDPEEMQWRDHWMQCVYFLPQEEPVVQGSALYLVAHHDDYCVWYSLQRTSPEKNERVRQMRPVCDCQAHLLWNRPRFGEINDQDRTDRYVQALRTVLKPDSVCLCVSDGSLLSVLAHHLGVEQVFTVESSAASHKLLRKIFKANHLEDKINIIEKRPELLTNEDLQGRKVSLLLGEPFFTTSLLPWHNLYFWYVRTAVDQHLGPGAMVMPQAASLHAVVVEFRDLWRIRSPCGDCEGFDVHIMDDMIKRALDFRESREAEPHPLWEYPCRSLSEPWQILTFDFQQPVPLQPLCAEGTVELRRPGQSHAAVLWMEYHLTPECTLSTGLLEPADPEGGCCWNPHCKQAVYFFSPAPDPRALLGGPRTVSYAVEFHPDTGDIIMEFRHADTPD [PRMT7] | -0.0142 | -0.014 | 49.5 °C | 51 °C | 0.131 | 1.01
11 | NF1 | -0.137 | -0.315 | 49.7 °C | 50.4 °C | -0.998 | -0.184
12 | TANC2 | -0.0218 | 0.222 | – | 50.3 °C | 0.0704 | 0.122
13 | MGSRIKQNPETTFEVYVEVAYPRTGGTLSDPEVQRQFPEDYSDQEVLQTLTKFCFPFYVDSLTVSQVGQNFTFVLTDIDSKQRFGFCRLSSGAKSCFCILSYLPWFEVFYKLLNILADYTTKRQENQWNELLETLHKLPIPDPGVSVHLSVHSYFTVPDTRELPSIPENRNLTEYFVAVDVNNMLHLYASMLYERRILIICSKLSTLTACIHGSAAMLYPMYWQHVYIPVLPPHLLDYCCAPMPYLIGIHLSLMEKVRNMALDDVVILNVDTNTLETPFDDLQSLPNDVISSLKNRLKKVSTTTGDGVARAFLKAQAAFFGSYRNALKIEPEEPITFCEEAFVSHYRSGAMRQFLQNATQLQLFKQFIDGRLDLLNSGEGFSDVFEEEINMGEYAGSDKLYHQWLSTVRKGSGAILNTVKTKANPAMKTVYKFAKDHAKMGIKEVKNRLKQKDIAENGCAPTPEEQLPKTAPSPLVEAKDPKLREDRRPITVHFGQVRPPRPHVVKRPKSNIAVEGRRTSVPSPEQPQPYRTLRESDSAEGDEAESPEQQVRKSTGPVPAPPDRAASIDLLEDVFSNLDMEAALQPLGQAKSLEDLRAPKDLREQPGTFDYQRLDLGGSERSRGVTVALKLTHPYNKLWSLGQDDMAIPSKPPAASPEKPSALLGNSLALPRRPQNRDSILNPSDKEEVPTPTLGSITIPRPQGRKTPELGIVPPPPIPRPAKLQAAGAALGDVSERLQTDRDRRAALSPGLLPGVVPQGPTELLQPLSPGPGAAGTSSDALLALLDPLSTAWSGSTLPSRPATPNVATPFTPQFSFPPAGTPTPFPQPPLNPFVPSMPAAPPTLPLVSTPAGPFGAPPASLGPAFASGLLLSSAGFCAPHRSQPNLSALSMPNLFGQMPMGTHTSPLQPLGPPAVAPSRIRTLPLARSSARAAETKQGLALRPGDPPLLPPRPPQGLEPTLQPSAPQQARDPFEDLLQKTKQDVSPSPALAPAPDSVEQLRKQWETFE [DENND1A] | -0.0536 | 0.079 | – | 53.6 °C | 0.0881 | 1.02
14 | MGGGWWWARAARLARLRFRRSLLPPQRPRSGGARGSFAPGHGPRAGASPPPVSELDRADAWLLRKAHETAFLSWFRNGLLASGIGVISFMQSDMGREAAYGFFLLGGLCVVWGSASYAVGLAALRGPMQLTLGGAAVGAGAVLAASLLWACAVGLYMGQLELDVELVPEDDGTASAEGPDEAGRPPPE [TMEM160] | -0.0483 | -0.112 | 54.2 °C | 56.9 °C | -1.62 | -1.47

Reference: the supplement of paper PMC5998384
